First the molecules themselves.
B1: SEQ ID NO 5 (VHH)
VHH: QVQLVESGGGLAQAGGSLRLSCAASGRTASGYAMGWFRQAPGKEREAVAAIMWSGGSTYYADSVKGRFTISRDNAKNTVYLQMNSLKTEDTAVYYCAARTDGSGWWDYWGQGTQVTVSS
notes: Expressed in E. coli, nickel column purified; Only the CDRs are printed; also called 蛋白5
B2: SEQ ID NO 3 (VHH)
VHH: QVQVAESGGGLVQSGGSMNLSCTASGNLFSVDAMGWFRQAPGEEREAVAAIMWSGDSTYYANAVKGRFTISRDNAKNTVYLQMNSLKPEDTAVYYCAARLQEEGWWDYWGQGTQVTVSS
notes: Expressed in E. coli, nickel column purified; Only the CDRs are printed; also called 蛋白3
B3: SEQ ID NO 6 (VHH)
VHH: QVQVVESGGGLVQPGGSLRLSCAASGRTVSSHAMGWFRQAPGEEREAVAAIMWSGDSTYYANAVKGRFTISRDNAKNTVYLQMNSLKPEDTAVYYCAARLQEEGWWDYWGQGTQVTVSS
notes: Expressed in E. coli, nickel column purified; Only the CDRs are printed; also called 蛋白6
B4: SEQ ID NO 4 (VHH)
VHH: QVRLVESGGGLVQPGGSLRLSCTASGGTFDRYNVAWFRQAPGEEREAVASIMWSGDNTYYANSVKGRFTISRDNAKNTVYLQMNSLKPEDTAVYYCAARIQEQGWWDYWGQGTQVTVSS
notes: Expressed in E. coli, nickel column purified; Only the CDRs are printed; also called 蛋白4
B5: SEQ ID NO 7 (VHH)
VHH: QVQLVESGGGLVQAGGSLRLSCVASGRTFSSYDMGWFRQAPGEEREAVAAINWSGGSTYYADSVKGRFTISSDNAKNTVYLQMNNLKPEDTAVYYCAARQVPGWWDYWGQGTQVTVSS
notes: Expressed in E. coli, nickel column purified; Only the CDRs are printed; also called 蛋白7

For five molecules, EC50 results are on record in CN113698481A (SUZHOU CENTERGENE PHARMACEUTICALS CO LTD, dated 2021).

For the assay, the target named is T1, 人绒毛膜促性腺激素(HCG) (human, UniProt P0DN86 21-165).
T1 construct: Alpha/beta heterodimer coated on ELISA plates; The source of the HCG preparation is lost from the text (gap after 'HCG |'); also called HCG抗原
T1 sequence (chain, as listed by the source, chain 1 of 2, other chains not shown): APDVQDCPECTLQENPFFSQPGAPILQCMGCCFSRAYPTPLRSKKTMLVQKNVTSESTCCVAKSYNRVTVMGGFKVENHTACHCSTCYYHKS
Briefly: ELISA, HCG coated at 2 μg/ml, VHH detected with anti-6xHis-HRP, 4-parameter fit. A general note: In an ELISA, binding on a coated surface is turned into a signal by an enzyme label.
Molecule B1 showed an EC50 of 0.00946 µg/mL. B2: the concentration for a half-maximal effect (EC50) is 0.0259 µg/mL.

Molecule B3 had an EC50 of 0.0138 µg/mL. Take B4: the EC50 came to 0.00505 µg/mL. Consider B5, for which the EC50 was determined as 0.014 µg/mL.

The EC50 is the concentration that produces a half-maximal response.
